Laboratory results as given in patent publication US20110045534A1.
“And” between values parts separate entries of the source, which are not always exact repeats. Equal values may be shown once.

Assays:
[1] = target: immunizing peptide for ERK2p; assay: ELISA on coated peptide; supernatant 1x
[2] = target: immunizing peptide for MRPL11; assay: ELISA on coated peptide; supernatant 1x
[3] = target: immunizing peptide for SUZ12; assay: ELISA on coated peptide; supernatant 1x
[4] = target: immunizing peptide for ERK2p; assay: ELISA on coated peptide; supernatant 1/10
[5] = target: immunizing peptide for MRPL11; assay: ELISA on coated peptide; supernatant 1/10
[6] = target: immunizing peptide for SUZ12; assay: ELISA on coated peptide; supernatant 1/10

Row | absorbance (OD 450 nm) [1] | absorbance (OD 450 nm) [2] | absorbance (OD 450 nm) [3] | absorbance (OD 450 nm) [4] | absorbance (OD 450 nm) [5] | absorbance (OD 450 nm) [6] | Binder
1 | 0.0534 OD450 and 0.0524 OD450 | 1.01 OD450 and 1.06 OD450 | 0.0487 OD450 and 0.0489 OD450 | 0.0478 OD450 and 0.0482 OD450 | 0.972 OD450 and 1.04 OD450 | 0.0461 OD450 and 0.0445 OD450 | anti-MRPL11 rabbit IgG expressed from the H-2A-L cassette (antibody) heavy: QSVEESGGRLVKPDETLTITCTVSGIDLNNNAMGWVRQAPGEGLEYIGFIGGSGATYYSTWAKGRFTISKSSTTVDLMITSPTTEDTATYFCARYAGSGSFDFSGPGTLVTVSLGQPKAPSVFPLAPCCGDTPSSTVTLGCLVKGYLPEPVTVTWNSGTLTNGVRTFPSVRQSSGLYSLSSVVSVTSSSQPVTCNVAHPATNTKVDKTVAPSTCSKPTCPPPELLGGPSVFIFPPKPKDTLMISRTPEVTCVVVDVSQDDPEVQFTWYINNEQVRTARPPLREQQFNSTIRVVSTLPIAHQDWLRGKEFKCKVHNKALPAPIEKTISKARGQPLEPKVYTMGPPREELSSRSVSLTCMINGFYPSDISVEWEKNGKAEDNYKTTPAVLDSDGSYFLYSKLSVPTSEWQRGDVFTCSVMHEALHNHYTQKSISRSPGKEGRGSLLTCGDVEENPG light: QVLTQTPSPVSAAVGNTVTINCQASQSVRDNNYLSWYQQKPGQPPKLLIYRASTLESGVPSRFKGNGSGTQFTLTISDLECDDAATYYCQGGYGGNFFPFGGGTEVVVKGDPVAPTVLIFPPAADQVATGTVTIVCVANKYFPDVTVTWEVDGTTQTTGIENSKTPQNSADCTYNLSSTLTLTSTQYNSHKEYTCKVTQGTTSVVQSFNRGDC
2 | 0.0575 OD450 | 0.971 OD450 | 0.0474 OD450 | 0.0629 OD450 | 1.01 OD450 | 0.0485 OD450 | anti-MRPL11 rabbit IgG expressed from two separate vectors (H + L positive control) (antibody) heavy: QSVEESGGRLVKPDETLTITCTVSGIDLNNNAMGWVRQAPGEGLEYIGFIGGSGATYYSTWAKGRFTISKSSTTVDLMITSPTTEDTATYFCARYAGSGSFDFSGPGTLVTVSLGQPKAPSVFPLAPCCGDTPSSTVTLGCLVKGYLPEPVTVTWNSGTLTNGVRTFPSVRQSSGLYSLSSVVSVTSSSQPVTCNVAHPATNTKVDKTVAPSTCSKPTCPPPELLGGPSVFIFPPKPKDTLMISRTPEVTCVVVDVSQDDPEVQFTWYINNEQVRTARPPLREQQFNSTIRVVSTLPIAHQDWLRGKEFKCKVHNKALPAPIEKTISKARGQPLEPKVYTMGPPREELSSRSVSLTCMINGFYPSDISVEWEKNGKAEDNYKTTPAVLDSDGSYFLYSKLSVPTSEWQRGDVFTCSVMHEALHNHYTQKSISRSPGK light: QVLTQTPSPVSAAVGNTVTINCQASQSVRDNNYLSWYQQKPGQPPKLLIYRASTLESGVPSRFKGNGSGTQFTLTISDLECDDAATYYCQGGYGGNFFPFGGGTEVVVKGDPVAPTVLIFPPAADQVATGTVTIVCVANKYFPDVTVTWEVDGTTQTTGIENSKTPQNSADCTYNLSSTLTLTSTQYNSHKEYTCKVTQGTTSVVQSFNRGDC
3 | 0.0663 OD450 and 0.0671 OD450 | 0.973 OD450 and 0.998 OD450 | 0.0542 OD450 and 0.0585 OD450 | 0.0621 OD450 and 0.0483 OD450 | 1.14 OD450 and 0.99 OD450 | 0.0486 OD450 and 0.0529 OD450 | anti-MRPL11 rabbit IgG expressed from the L-2A-H cassette (antibody) light: QVLTQTPSPVSAAVGNTVTINCQASQSVRDNNYLSWYQQKPGQPPKLLIYRASTLESGVPSRFKGNGSGTQFTLTISDLECDDAATYYCQGGYGGNFFPFGGGTEVVVKGDPVAPTVLIFPPAADQVATGTVTIVCVANKYFPDVTVTWEVDGTTQTTGIENSKTPQNSADCTYNLSSTLTLTSTQYNSHKEYTCKVTQGTTSVVQSFNRGDCEGRGSLLTCGDVEENPG heavy: QSVEESGGRLVKPDETLTITCTVSGIDLNNNAMGWVRQAPGEGLEYIGFIGGSGATYYSTWAKGRFTISKSSTTVDLMITSPTTEDTATYFCARYAGSGSFDFSGPGTLVTVSLGQPKAPSVFPLAPCCGDTPSSTVTLGCLVKGYLPEPVTVTWNSGTLTNGVRTFPSVRQSSGLYSLSSVVSVTSSSQPVTCNVAHPATNTKVDKTVAPSTCSKPTCPPPELLGGPSVFIFPPKPKDTLMISRTPEVTCVVVDVSQDDPEVQFTWYINNEQVRTARPPLREQQFNSTIRVVSTLPIAHQDWLRGKEFKCKVHNKALPAPIEKTISKARGQPLEPKVYTMGPPREELSSRSVSLTCMINGFYPSDISVEWEKNGKAEDNYKTTPAVLDSDGSYFLYSKLSVPTSEWQRGDVFTCSVMHEALHNHYTQKSISRSPGK
